Measurements taken from patent US20090155176A1 (Novartis, published 2009).

Biological target: T1, β2 construct alone (mock) expressed in 293 cells (UniProt P05107 23-769)
T1 construct: whole, on cells; Negative control transfectant; also called mock (β2) transfected cells
Experiment: adhesion of transfected 293 cells to plate-bound ICAM-1-Ig

T1 sequence (P05107 23-769): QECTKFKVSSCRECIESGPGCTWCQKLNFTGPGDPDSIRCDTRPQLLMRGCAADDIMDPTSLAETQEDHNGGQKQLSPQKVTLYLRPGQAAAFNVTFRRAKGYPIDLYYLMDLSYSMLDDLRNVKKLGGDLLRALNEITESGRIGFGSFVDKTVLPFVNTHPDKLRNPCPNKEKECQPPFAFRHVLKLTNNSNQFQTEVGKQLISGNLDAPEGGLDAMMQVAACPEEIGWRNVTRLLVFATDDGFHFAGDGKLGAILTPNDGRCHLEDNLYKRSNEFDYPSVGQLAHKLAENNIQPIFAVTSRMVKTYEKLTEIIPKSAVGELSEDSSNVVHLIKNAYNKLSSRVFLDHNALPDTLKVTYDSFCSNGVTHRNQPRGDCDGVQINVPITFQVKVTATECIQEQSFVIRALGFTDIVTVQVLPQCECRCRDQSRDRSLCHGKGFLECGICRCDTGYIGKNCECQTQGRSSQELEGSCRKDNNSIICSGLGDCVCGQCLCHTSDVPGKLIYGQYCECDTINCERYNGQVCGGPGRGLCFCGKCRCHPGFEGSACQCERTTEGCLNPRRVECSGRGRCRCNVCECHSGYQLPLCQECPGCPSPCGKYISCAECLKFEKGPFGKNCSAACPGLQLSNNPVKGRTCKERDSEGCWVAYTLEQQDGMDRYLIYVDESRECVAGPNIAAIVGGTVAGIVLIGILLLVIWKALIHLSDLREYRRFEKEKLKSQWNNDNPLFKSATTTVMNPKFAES

B1: ICAM-1-Ig (Fc fusion, UniProt P05362 28-480, looked up)
chain: QTSVSPSKVILPRGGSVLVTCSTSCDQPKLLGIETPLPKKELLLPGNNRKVYELSNVQEDSQPMCYSNCPDGQSTAKTFLTVYWTPERVELAPLPSWQPVGKNLTLRCQVEGGAPRANLTVVLLRGEKELKREPAVGEPAEVTTTVLVRRDHHGANFSCRTELDLRPQGLELFENTSAPYQLQTFVLPATPPQLVSPRVLEVDTQGTVVCSLDGLFPVSEAQVHLALGDQRLNPTVTYGNDSFSAKASVSVTAEDEGTQRLTCAVILGNQSQETLQTVTIYSFPAPNVILTKPEVSEGTEVTVKCEAHPRAKVTLNGVPAQPLGPRAQLLLKATPEDNGRSFSCSATLEVAGQLIHKNQTRELRVLYGPRLDERDCPGNWTWPENSQQTPMCQAWGNPLPELKCLKDGTFPLPIGESVTVTRDLEGTYLCRARSTQGEVTRKVTVNVLSPRYE
notes: not shown: Ig portion
  binding result: no binding
